Legend:
Test in all cases: purified protein
Assay type in all cases: biochemical, Pseudomonas putida
[1] = tested on: T1, CC(O)(CC(=O)C(=O)O)C(=O)O; details: without Pi, 1 mM MgCl2, 0.1 M HEPES pH 8.0, 25 °C, racemic substrate
T1 construct: recombinant from pT7-7, expressed in E. coli; chelex-treated apo-enzyme reconstituted with MgCl2

[2] = tested on: T2, O=C(O)CC(O)(CC(=O)C(=O)O)C(=O)O; details: without Pi, 1 mM MgCl2, 0.1 M HEPES pH 8.0, 25 °C, racemic substrate
T2 construct: recombinant from pT7-7, expressed in E. coli; chelex-treated apo-enzyme reconstituted with MgCl2

O=C(O)CC(=O)C(=O)O = tested on: T3, O=C(O)CC(=O)C(=O)O; details: without Pi, 1 mM MgCl2, 0.1 M HEPES pH 8.0, 25 °C
T3 construct: recombinant from pT7-7, expressed in E. coli; chelex-treated apo-enzyme reconstituted with MgCl2

Row | Substance | Km [1] [µM] | kcat [1] [s⁻¹] | kcat/Km [1] [M⁻¹ s⁻¹] | Km [2] [µM] | kcat [2] [s⁻¹] | kcat/Km [2] [M⁻¹ s⁻¹] | Km (O=C(O)CC(=O)C(=O)O) [µM] | kcat (O=C(O)CC(=O)C(=O)O) [s⁻¹] | kcat/Km (O=C(O)CC(=O)C(=O)O) [M⁻¹ s⁻¹]
1 | HMG/CHA aldolase (Pseudomonas putida F1; T145A) | 1080 ± 88 | 0.889 ± 0.057 | 823 ± 85 | – | – | – | – | – | –
2 | HMG/CHA aldolase (Pseudomonas putida F1; R123K) | 3210 ± 210 | 0.086 ± 0.0046 | 26.7 ± 2.3 | – | – | – | – | – | –
3 | HMG/CHA aldolase (Pseudomonas putida F1; R40A) | 304 ± 27 | 6.7 ± 0.14 | 22000 ± 2100 | – | – | – | – | – | –
4 | HMG/CHA aldolase (Pseudomonas putida F1; G144V) | 1390 ± 160 | 0.215 ± 0.015 | 155 ± 21 | – | – | – | – | – | –
5 | HMG/CHA aldolase (Pseudomonas putida F1; K147A) | 2010 ± 210 | 0.014 ± 0.00039 | 6.97 ± 0.75 | – | – | – | – | – | –
6 | HMG/CHA aldolase (Pseudomonas putida F1; N71A) | 796 ± 70 | 0.014 ± 0.0011 | 17.6 ± 2.1 | – | – | – | – | – | –
7 | HMG/CHA aldolase (Pseudomonas putida F1) | 188 ± 11 | 15.6 ± 0.54 | 83000 ± 5600 | 15.0 ± 1.3 | 13.4 ± 0.31 | 893000 ± 80000 | 298 ± 30 | 1.86 ± 0.18 | 6240 ± 870
8 | HMG/CHA aldolase (Pseudomonas putida F1; H75A) | 389 ± 22 | 22.3 ± 0.75 | 57300 ± 3800 | – | – | – | – | – | –
9 | HMG/CHA aldolase (Pseudomonas putida F1; R195A) | 1370 ± 58 | 6.72 ± 0.19 | 4910 ± 250 | – | – | – | – | – | –

Source: publication PMC5065237, “Investigation into the Mode of Phosphate Activation in the 4-Hydroxy-4-Methyl-2-Oxoglutarate/4-Carboxy-4-Hydroxy-2-Oxoadipate Aldolase from Pseudomonas putida F1” (PLoS ONE, 2016)
